B1: Wnt5a: recombinant Wnt5a protein added to NK-92MI cells (protein, UniProt P41221 62-380, looked up)
Protein Wnt-5a: IIGAQPLCSQLAGLSQGQKKLCHLYQDHMQYIGEGAKTGIKECQYQFRHRRWNCSTVDNTSVFGRVMQIGSRETAFTYAVSAAGVVNAMSRACREGELSTCGCSRAARPKDLPRDWLWGGCGDNIDYGYRFAKEFVDARERERIHAKGSYESARILMNLHNNEAGRRTVYNLADVACKCHGVSGSCSLKTCWLQLADFRKVGDALKEKYDSAAAMRLNSRGKLVQVNSRFNSPTTQDLVYIDPSPDYCVRNESTGSLGTQGRLCNKTSEGMDGCELMCCGRGYDQFKTVQTERCHCKFHWCCYVKCKKCTEIVDQFVCK
B2: DKK2: recombinant DKK2 protein added to NK-92MI cells (protein)
chain: KLNSIKSSLGGETPGQAANRSAGMYQGLAFGGSKKGKNLGQAYPCSSDKECEVGRYCHSPHQGSSACMVCRRKKKRCHRDGMCCPSTRCNNGICIPVTESILTPHIPALDGTRHRDRNHGHYSNHDLGWQNLGRPHTKMSHIKGHEGDPCLRSSDCIEGFCCARHFWTKICKPVLHQGEVCTKQRKKGSHGLEIFQRCDCAKGLSCKVWKDATYSSKARLHVCQKI

Test system: NK-92MI cells
Assay: Granzyme B expression in human NK cell line NK92 by flow cytometry
Format: cell-based
Conditions: recombinant proteins 200 ng/ml, 24 hours
Procedure: Recombinant Wnt5a and DKK2 (200 ng/ml) were added to NK-92MI cells for 24 hours and Granzyme B contents were analyzed by flow cytometry.
Human NK cell line NK-92 and primary mouse NK cells from spleens and MC38-grafted tumors were tested for their expression of Granzyme and cytotoxic activity in the presence or absence of recombinant proteins of DKK2, Wnt3a, Wnt5a and DKK1, and in the presence or absence of Wnt inhibitors (including LGK-974) and GSK inhibitors (including CHIR 99021). In this manner, the regulation of NK cell activation by DKK2 and Wnt was assessed.

Molecule | Granzyme B expression
B1 | inhibited Granzyme B expression
B2 | inhibited Granzyme B expression
